Key:
Settings in all cases: 20 nM; 72 h
MCF10A [1] = assay: percent viability (nuclei count relative to siNT); higher = more viable cells
Experimental: (§1)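 After 72 h, cells were fixed and stained with Hoechst and anti-fibrillarin, and nucleoli per nucleus were counted with CellProfiler. Values are plate-adjusted percent effect for the one-nucleolus and 5+ nucleoli phenotypes, normalised to siNT (0%) and to the positive controls siNOL11 or siKIF11 (100%), as the mean of biological triplicates. Percent viability is the nuclei count relative to siNT.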

MCF10A [2] = assay: one-nucleolus phenotype percent effect (relative to siNT 0% and siNOL11 100%); higher = more cells with one nucleolus (ribosome biogenesis inhibition)
Experimental: as §1

MCF10A [3] = assay: 5+ nucleoli phenotype percent effect (relative to siNT 0% and siKIF11 100%); higher = more cells with five or more nucleoli
Experimental: as §1

Row | Sequence | percent viability (MCF10A [1]) [%] | one-nucleolus phenotype percent effect (MCF10A [2]) [%] | 5+ nucleoli phenotype percent effect (MCF10A [3]) [%]
1 | UUCUCAAGAGGGAGGCAAUCAU [hsa-miR-514b-5p] | 43.1 | -22.9 | 36.5
2 | UUCUCAAGGAGGUGUCGUUUAU [hsa-miR-513c-5p] | 30 | 19.8 | 3.99
3 | UUCUCCAAAAGAAAGCACUUUCUG [hsa-miR-515-5p] | 91.4 | -9.79 | 3.02
4 | UUCUCCAAAAGGGAGCACUUUC [hsa-miR-519e-5p] | 39.5 | -3.64 | 4.42
5 | UUCUCGAGGAAAGAAGCACUUUC [hsa-miR-516a-5p] | 127 | -19.5 | 22.1
6 | UUCUCUCUGUCUUUCUCUCUCAG [hsa-miR-6873-3p] | 35.2 | -19 | 46.6
7 | UUCUCUUUCUUUAGCCUUGUGU [hsa-miR-4753-3p] | 22.1 | 27.3 | -14.1
8 | UUCUGAGCUGAGGACAG [hsa-miR-4303] | 45.5 | -2.54 | -10.7
9 | UUCUGCCUCUGUCCAGGUCCUU [hsa-miR-5001-3p] | 39.1 | 19.3 | -28.1
10 | UUCUGCUGCCGGCCAAGGC [hsa-miR-6071] | 27.8 | 22.1 | -25.7
11 | UUCUGGAAUUCUGUGUGAGGGA [hsa-miR-1299] | 58.7 | 19.2 | -3.13
12 | UUCUGGAUAACAUGCUGAAGCU [hsa-miR-5706] | 176 | -32.6 | 51.3
13 | UUCUGGAUAUGAAGACAAUCAA [hsa-miR-4782-5p] | 16.3 | 44.9 | -38.6
14 | UUCUUUGUUUUUAAUUCACAG [hsa-miR-6844] | 70 | -15.7 | 8.6
15 | UUGAAAGGCUAUUUCUUGGUC [hsa-miR-488-3p] | 36.8 | 39.9 | -44.7
16 | UUGAACUGUUAAGAACCACUGGA [hsa-miR-203b-3p] | 36.7 | 29.5 | -29.1
17 | UUGAAGAGGAGGUGCUCUGUAGC [hsa-miR-4709-3p] | 28 | 29.5 | -33
18 | UUGAAGGGACAAGUCAGAUAUGCC [hsa-miR-6864-5p] | 25.6 | 17.8 | -1.47
19 | UUGAAUUCUUGGCCUUAAGUGAU [hsa-miR-4452] | 42.1 | -19.4 | -9.56
20 | UUGAGAAUGAUGAAUCAUUAGG [hsa-miR-580] | 91.4 | -18.3 | 25.6
21 | UUGAGGAAAAGAUGGUCUUAUU [hsa-miR-3915] | 36.5 | -3.96 | -19
22 | UUGAGGAGACAUGGUGGGGGCC [hsa-miR-4689] | 103 | 12.3 | 2.8
23 | UUGAGGGGAGAAUGAGGUGGAGA [hsa-miR-6734-5p] | 35 | -5.42 | 2.95
24 | UUGAUCUCGGAAGCUAAGC [hsa-miR-7641] | 82.6 | -20.1 | 6.46

— the supplement of paper PMC10899765
